Sequences and labels used below:
B1: SepF [B. subtilis] / Halo-ZC (HaloTag fused to the final 69 amino acids of B. subtilis FtsZ) [B. subtilis] (parent complex)
chain 1: MSMKNKLKNFFSMEDEEYEYEYIETERESHEEHEQKEKPAYNGNKPAGKQNVVSLQSVQKSSKVVLSEPRVYAEAQEIADHLKNRRAVVVNLQRIQHDQAKRIVDFLSGTVYAIGGDIQRIGSDIFLCTPDNVDVSGTISELISEDEHQRW
chain 2: GFIEQEKDVTKPQRPSLNQSIKTHNQSVPKREPKREEPQQQNTVSRHTSQPADDTLDIPTFLRNRNKRG

This assay covers variants of B1. The assay can be described thus: pull-down (HaloTag bait), densitometric scanning of Coomassie-stained gels; read off a plot.
In the case of chain 2 I58A, the screen value is about 0.35.
With chain 2 N66A the figure was about 0.74; with chain 2 K67A, about 0.51; with chain 2 R68A, about 0.46.
In the case of chain 2 D57A it was about 0.53.
In the case of chain 2 G69A it was about 0.69.
chain 2 F61A: the screen value is about 0.03.
In the case of chain 2 R65A, the screen value is about 0.42.
Consider chain 2 P59A, for which the screen value was about 0.04.
With chain 2 T55A, the screen value was about 0.83.
In the case of chain 2 T60A it was about 0.66; in that of chain 2 D54A, about 0.9.

(Values after publication PMC3418248 (2012).)
